Target: the molecule itself
Test: SEC-SAXS; inline SEC-SAXS; 25 mM HEPES pH 8.0, 200 mM NaCl, 1 mM TCEP, with or without 1 mM ADP or AMPPNP; 25°C; 10 mg/ml protein, 100 μl injected; scattering fitted with dimer models (EOM, OLIGOMER)

B1: mouse GRP94 (22-754) (natural protein, UniProt P08113 22-754, looked up)
chain: DDEVDVDGTVEEDLGKSREGSRTDDEVVQREEEAIQLDGLNASQIRELREKSEKFAFQAEVNRMMKLIINSLYKNKEIFLRELISNASDALDKIRLISLTDENALAGNEELTVKIKCDKEKNLLHVTDTGVGMTREELVKNLGTIAKSGTSEFLNKMTEAQEDGQSTSELIGQFGVGFYSAFLVADKVIVTSKHNNDTQHIWESDSNEFSVIADPRGNTLGRGTTITLVLKEEASDYLELDTIKNLVRKYSQFINFPIYVWSSKTETVEEPLEEDEAAKEEKEESDDEAAVEEEEEEKKPKTKKVEKTVWDWELMNDIKPIWQRPSKEVEEDEYKAFYKSFSKESDDPMAYIHFTAEGEVTFKSILFVPTSAPRGLFDEYGSKKSDYIKLYVRRVFITDDFHDMMPKYLNFVKGVVDSDDLPLNVSRETLQQHKLLKVIRKKLVRKTLDMIKKIADEKYNDTFWKEFGTNIKLGVIEDHSNRTRLAKLLRFQSSHHSTDITSLDQYVERMKEKQDKIYFMAGSSRKEAESSPFVERLLKKGYEVIYLTEPVDEYCIQALPEFDGKRFQNVAKEGVKFDESEKTKESREATEKEFEPLLNWMKDKALKDKIEKAVVSQRLTESPCALVASQYGWSGNMERIMKAQAYQTGKDISTNYYASQKKTFEINPRHPLIRDMLRRIKEDEDDKTVMDLAVVLFETATLRSGYLLPDTKAYGDRIERMLRLSLNIDPEAQ
notes: GRP94 (endoplasmin), mouse, residues 22-754, with the full pre-N domain and the charged linker region preserved; The N-terminal Strep-tag II is followed by a thrombin site; no thrombin cleavage is described; The C-terminal 6xHis tag was removed with TEV protease; also called mGRP94; mGrp94; source: E. coli BL21 (DE3), purified (Histrap HP, TEV cleavage, Hitrap Q HP, second Histrap HP …)
Q: Does B1 bind?
A: binds
